# Data reported in US20140179604A1 (U S A REPRESENTED BY THE DEPARTMENT OF VETERANS AFFAIRS, published 2014).
# Non-standard residues stand in square brackets, D forms with d. No end group written: not given here. *: point of attachment. Phe(F5) = N[C@@H](Cc1c(F)c(F)c(F)c(F)c1F)C(=O)O; Desaminotyrosyl = O=C(CCc1ccc(O)cc1)*; NMeY = CN[C@@H](Cc1ccc(O)cc1)C(=O)O; Agmatine = N=C(N)NCCCCN*; NMeA = CN[C@@H](C)C(=O)O; Nle = CCCC[C@H](N)C(=O)O; Orn = NCCC[C@H](N)C(=O)O; Abu = CC[C@H](N)C(=O)O; Aoc = NCCCCCCCC(=O)O; Ava = NCCCCC(=O)O; GABA = NCCCC(=O)O
# T1: GHRH receptor (membrane receptors of human anterior pituitary cells) (human, UniProt Q02643 23-423)
# T1 construct: whole, on cells; Native receptor in a membrane fraction of purchased normal human pituitaries, not intact cells; also called hGHRH receptor; human pituitary membrane homogenates
# T1 sequence (looked up): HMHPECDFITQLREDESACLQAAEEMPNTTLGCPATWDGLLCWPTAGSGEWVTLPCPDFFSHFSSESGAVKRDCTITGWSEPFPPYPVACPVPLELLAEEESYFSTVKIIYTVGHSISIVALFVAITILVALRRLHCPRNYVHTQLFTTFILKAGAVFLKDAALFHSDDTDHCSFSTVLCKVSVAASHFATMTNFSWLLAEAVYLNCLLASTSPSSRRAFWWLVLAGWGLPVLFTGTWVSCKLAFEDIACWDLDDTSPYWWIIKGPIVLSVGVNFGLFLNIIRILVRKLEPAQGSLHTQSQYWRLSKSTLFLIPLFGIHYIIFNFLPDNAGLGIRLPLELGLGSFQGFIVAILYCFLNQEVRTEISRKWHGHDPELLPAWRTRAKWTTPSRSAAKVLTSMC
# B1: P-20367 [N-Me-Tyr^1, D-Ala^2, Orn^12, Abu^15, Orn^21, Nle^27, Asp^28, Agm^29]hGHRH(1-29)NH2 (peptide)
# peptide: [NMeY][dA]DAIFTNSYR[Orn]VL[Abu]QLSAR[Orn]LLQDI[Nle]D[Agmatine]
# notes: also called Peptide 20367
# B2: P-27410 [N-Me-Tyr^1, D-Ala^2, Thr^8, Orn^12, Abu^15, Orn^21, Nle^27, Asp^28]hGHRH(1-29)NH-CH3 (peptide)
# peptide: [NMeY][dA]DAIFTTSYR[Orn]VL[Abu]QLSAR[Orn]LLQDI[Nle]DR-NHMe
# notes: also called MR-410; Peptide 27410
# B3: P-27409 [N-Me-Tyr^1, D-Ala^2, Orn^12, Abu^15, Orn^21, Nle^27, Asp^28]hGHRH(1-29)NH-CH3 (peptide)
# peptide: [NMeY][dA]DAIFTNSYR[Orn]VL[Abu]QLSAR[Orn]LLQDI[Nle]DR-NHMe
# notes: also called MR-409; Peptide 27409
# B4: P-22326 [N-Me-Tyr^1, D-Ala^2, Gln^8, Orn^12, Abu^15, Orn^21, Nle^27, Asp^28, Apa^30]hGHRH(1-30)NH2 (peptide)
# peptide: [NMeY][dA]DAIFTQSYR[Orn]VL[Abu]QLSAR[Orn]LLQDI[Nle]DR[Ava]-NH2
# modifications: N-terminus assumed
# SMILES: CCCC[C@H](NC(=O)[C@@H](NC(=O)[C@H](CC(=O)O)NC(=O)[C@H](CCC(N)=O)NC(=O)[C@H](CC(C)C)NC(=O)[C@H](CC(C)C)NC(=O)[C@H](CCCN)NC(=O)[C@H](CCCNC(=N)N)NC(=O)[C@H](C)NC(=O)[C@H](CO)NC(=O)[C@H](CC(C)C)NC(=O)[C@H](CCC(N)=O)NC(=O)[C@H](CC)NC(=O)[C@H](CC(C)C)NC(=O)[C@@H](NC(=O)[C@H](CCCN)NC(=O)[C@H](CCCNC(=N)N)NC(=O)[C@H](Cc1ccc(O)cc1)NC(=O)[C@H](CO)NC(=O)[C@H](CCC(N)=O)NC(=O)[C@@H](NC(=O)[C@H](Cc1ccccc1)NC(=O)[C@@H](NC(=O)[C@H](C)NC(=O)[C@H](CC(=O)O)NC(=O)[C@@H](C)NC(=O)[C@H](Cc1ccc(O)cc1)NC)[C@@H](C)CC)[C@@H](C)O)C(C)C)[C@@H](C)CC)C(=O)N[C@@H](CC(=O)O)C(=O)N[C@@H](CCCNC(=N)N)C(=O)NCCCCC(N)=O
# notes: also called MR-326; Peptide 22326
# B5: P-21300 [Dat^1, D-Ala^2, Orn^12, Abu^15, Orn^21, Nle^27, Asp^28, Amc^30]hGHRH(1-30)NH2 (peptide)
# peptide: [Desaminotyrosyl][dA]DAIFTNSYR[Orn]VL[Abu]QLSAR[Orn]LLQDI[Nle]DR[Aoc]-NH2
# SMILES: CCCC[C@H](NC(=O)[C@@H](NC(=O)[C@H](CC(=O)O)NC(=O)[C@H](CCC(N)=O)NC(=O)[C@H](CC(C)C)NC(=O)[C@H](CC(C)C)NC(=O)[C@H](CCCN)NC(=O)[C@H](CCCNC(=N)N)NC(=O)[C@H](C)NC(=O)[C@H](CO)NC(=O)[C@H](CC(C)C)NC(=O)[C@H](CCC(N)=O)NC(=O)[C@H](CC)NC(=O)[C@H](CC(C)C)NC(=O)[C@@H](NC(=O)[C@H](CCCN)NC(=O)[C@H](CCCNC(=N)N)NC(=O)[C@H](Cc1ccc(O)cc1)NC(=O)[C@H](CO)NC(=O)[C@H](CC(N)=O)NC(=O)[C@@H](NC(=O)[C@H](Cc1ccccc1)NC(=O)[C@@H](NC(=O)[C@H](C)NC(=O)[C@H](CC(=O)O)NC(=O)[C@@H](C)NC(=O)CCc1ccc(O)cc1)[C@@H](C)CC)[C@@H](C)O)C(C)C)[C@@H](C)CC)C(=O)N[C@@H](CC(=O)O)C(=O)N[C@@H](CCCNC(=N)N)C(=O)NCCCCCCCC(N)=O
# notes: also called Peptide 21300
# B6: P-20357 [Dat^1, D-Ala^2, N-Me-Ala^8, Orn^12, Abu^15, Orn^21, Nle^27, Asp^28, Agm^29]hGHRH(1-29)NH2 (peptide)
# peptide: [Desaminotyrosyl][dA]DAIFT[NMeA]SYR[Orn]VL[Abu]QLSAR[Orn]LLQDI[Nle]D[Agmatine]
# SMILES: CCCC[C@H](NC(=O)[C@@H](NC(=O)[C@H](CC(=O)O)NC(=O)[C@H](CCC(N)=O)NC(=O)[C@H](CC(C)C)NC(=O)[C@H](CC(C)C)NC(=O)[C@H](CCCN)NC(=O)[C@H](CCCNC(=N)N)NC(=O)[C@H](C)NC(=O)[C@H](CO)NC(=O)[C@H](CC(C)C)NC(=O)[C@H](CCC(N)=O)NC(=O)[C@H](CC)NC(=O)[C@H](CC(C)C)NC(=O)[C@@H](NC(=O)[C@H](CCCN)NC(=O)[C@H](CCCNC(=N)N)NC(=O)[C@H](Cc1ccc(O)cc1)NC(=O)[C@H](CO)NC(=O)[C@H](C)N(C)C(=O)[C@@H](NC(=O)[C@H](Cc1ccccc1)NC(=O)[C@@H](NC(=O)[C@H](C)NC(=O)[C@H](CC(=O)O)NC(=O)[C@@H](C)NC(=O)CCc1ccc(O)cc1)[C@@H](C)CC)[C@@H](C)O)C(C)C)[C@@H](C)CC)C(=O)N[C@@H](CC(=O)O)C(=O)NCCCCNC(=N)N
# notes: also called Peptide 20357
# B7: P-27400 [Dat^1, D-Ala^2, Orn^12, Abu^15, Orn^21, Nle^27, Asp^28]hGHRH(1-29)NH-CH3 (peptide)
# peptide: [Desaminotyrosyl][dA]DAIFTNSYR[Orn]VL[Abu]QLSAR[Orn]LLQDI[Nle]DR-NHMe
# SMILES: CCCC[C@H](NC(=O)[C@@H](NC(=O)[C@H](CC(=O)O)NC(=O)[C@H](CCC(N)=O)NC(=O)[C@H](CC(C)C)NC(=O)[C@H](CC(C)C)NC(=O)[C@H](CCCN)NC(=O)[C@H](CCCNC(=N)N)NC(=O)[C@H](C)NC(=O)[C@H](CO)NC(=O)[C@H](CC(C)C)NC(=O)[C@H](CCC(N)=O)NC(=O)[C@H](CC)NC(=O)[C@H](CC(C)C)NC(=O)[C@@H](NC(=O)[C@H](CCCN)NC(=O)[C@H](CCCNC(=N)N)NC(=O)[C@H](Cc1ccc(O)cc1)NC(=O)[C@H](CO)NC(=O)[C@H](CC(N)=O)NC(=O)[C@@H](NC(=O)[C@H](Cc1ccccc1)NC(=O)[C@@H](NC(=O)[C@H](C)NC(=O)[C@H](CC(=O)O)NC(=O)[C@@H](C)NC(=O)CCc1ccc(O)cc1)[C@@H](C)CC)[C@@H](C)O)C(C)C)[C@@H](C)CC)C(=O)N[C@@H](CC(=O)O)C(=O)N[C@@H](CCCNC(=N)N)C(=O)NC
# B8: P-20359 [N-Me-Tyr^1, D-Ala^2, Fpa5^6, Orn^12, Abu^15, Orn^21, Nle^27, Asp^28, Agm^29]hGHRH(1-29)NH2 (peptide)
# peptide: [NMeY][dA]DAI[Phe(F5)]TNSYR[Orn]VL[Abu]QLSAR[Orn]LLQDI[Nle]D[Agmatine]
# notes: also called Peptide 20359
# B9: P-25501 [N-Me-Tyr^1, D-Ala^2, Orn^12, Abu^15, Orn^21, Nle^27, Gab^30]hGHRH(1-30)NH2 (peptide)
# peptide: [NMeY][dA]DAIFTNSYR[Orn]VL[Abu]QLSAR[Orn]LLQDI[Nle]SR[GABA]-NH2
# modifications: N-terminus assumed
# SMILES: CCCC[C@H](NC(=O)[C@@H](NC(=O)[C@H](CC(=O)O)NC(=O)[C@H](CCC(N)=O)NC(=O)[C@H](CC(C)C)NC(=O)[C@H](CC(C)C)NC(=O)[C@H](CCCN)NC(=O)[C@H](CCCNC(=N)N)NC(=O)[C@H](C)NC(=O)[C@H](CO)NC(=O)[C@H](CC(C)C)NC(=O)[C@H](CCC(N)=O)NC(=O)[C@H](CC)NC(=O)[C@H](CC(C)C)NC(=O)[C@@H](NC(=O)[C@H](CCCN)NC(=O)[C@H](CCCNC(=N)N)NC(=O)[C@H](Cc1ccc(O)cc1)NC(=O)[C@H](CO)NC(=O)[C@H](CC(N)=O)NC(=O)[C@@H](NC(=O)[C@H](Cc1ccccc1)NC(=O)[C@@H](NC(=O)[C@H](C)NC(=O)[C@H](CC(=O)O)NC(=O)[C@@H](C)NC(=O)[C@H](Cc1ccc(O)cc1)NC)[C@@H](C)CC)[C@@H](C)O)C(C)C)[C@@H](C)CC)C(=O)N[C@@H](CO)C(=O)N[C@@H](CCCNC(=N)N)C(=O)NCCCC(N)=O
# notes: also called Peptide 25501
# B10: P-27414 [N-Me-Tyr^1, D-Ala^2, Fpa5^6, Orn^12, Abu^15, Orn^21, Nle^27, Gab^30]hGHRH(1-30)NH-CH3 (peptide)
# peptide: [NMeY][dA]DAI[Phe(F5)]TNSYR[Orn]VL[Abu]QLSAR[Orn]LLQDI[Nle]SR[GABA]-NHMe
# notes: also called Peptide 27414
# B11: P-21303 [N-Me-Tyr^1, D-Ala^2, Orn^12, Abu^15, Orn^21, Nle^27, Asp^28, Amc^30]hGHRH(1-30)NH2 (peptide)
# peptide: [NMeY][dA]DAIFTNSYR[Orn]VL[Abu]QLSAR[Orn]LLQDI[Nle]DR[Aoc]-NH2
# modifications: N-terminus assumed
# SMILES: CCCC[C@H](NC(=O)[C@@H](NC(=O)[C@H](CC(=O)O)NC(=O)[C@H](CCC(N)=O)NC(=O)[C@H](CC(C)C)NC(=O)[C@H](CC(C)C)NC(=O)[C@H](CCCN)NC(=O)[C@H](CCCNC(=N)N)NC(=O)[C@H](C)NC(=O)[C@H](CO)NC(=O)[C@H](CC(C)C)NC(=O)[C@H](CCC(N)=O)NC(=O)[C@H](CC)NC(=O)[C@H](CC(C)C)NC(=O)[C@@H](NC(=O)[C@H](CCCN)NC(=O)[C@H](CCCNC(=N)N)NC(=O)[C@H](Cc1ccc(O)cc1)NC(=O)[C@H](CO)NC(=O)[C@H](CC(N)=O)NC(=O)[C@@H](NC(=O)[C@H](Cc1ccccc1)NC(=O)[C@@H](NC(=O)[C@H](C)NC(=O)[C@H](CC(=O)O)NC(=O)[C@@H](C)NC(=O)[C@H](Cc1ccc(O)cc1)NC)[C@@H](C)CC)[C@@H](C)O)C(C)C)[C@@H](C)CC)C(=O)N[C@@H](CC(=O)O)C(=O)N[C@@H](CCCNC(=N)N)C(=O)NCCCCCCCC(N)=O
# notes: also called Peptide 21303
# Target: T1, GHRH receptor (membrane receptors of …)
# Experiment: competition with 125I-[His1,Nle27]hGHRH(1-32)NH2, human pituitary membranes
# Source text: Normal human pituitary was purchased from the National Hormone and Peptide Program (UCLA Medical Center, Torrance, Calif.).
IC50 [nM],Relative affinity (Binding potency) compared to JI-38 [JI-38 = 1],Relative affinity (Binding potency) compared to hGHRH(1-29),Binder
1.09,2.51,7.01 hGHRH(1-29)NH2 = 1,B1
1.28,2.14,5.98 hGHRH(1-29)NH2 = 1,B2
1.01,2.71,7.57 hGHRH(1-29)NH2 = 1,B3
0.98,2.8,7.81 hGHRH(1-29)NH2 = 1,B4

# Target: T1, GHRH receptor (membrane receptors of …)
# Experiment: competition with 125I-JV-1-42, human pituitary membranes
# Source text: Normal human pituitaries were purchased from the National Hormone and Peptide Program (A. F. Parlow, Los Angeles, County Harbor-UCLA Medical Center, Torrance, Calif.).
IC50 [nM],Relative affinity (Binding potency) vs JI-38 [JI-38 = 1],Binder
3.61,1.2,B5
0.86,5.06,B6
1.7,2.56,B1
3.35,1.3,B7
0.83,5.24,B2
1.06,4.1,B3
3.05,1.43,B8
0.71,6.12,B4
1.07,4.07,B9
1.56,2.79,B10
1.87,2.32,B11
